Source: IntAct's records for PubMed 17157260

B1: Protein YNG1 (Saccharomyces cerevisiae), Q08465 (parent)
chain: MEHLANENSDSDIRYSFLSTLDHLPCELIRSLRLMQTIDLFKNEEDEPGMERACRDLLLVATYINDLVDDQIHFLKQHKKELEIQKSVTKNFNSSLENIKSKLTLEEPGAYKEPKLLLKINLKKAKSRERKESITSPTIGINQGDVTEGNNNQEEVYCFCRNVSYGPMVACDNPACPFEWFHYGCVGLKQAPKGKWYCSKDCKEIANQRSKSKRQKRRK

Variants of: B1
Conditions: with h3_yeast HHT1, P61830

Variant | effect of a mutation on the interaction
MEHLANENSDSDIRYSFLSTLDHLPCELIRSLRLMQTIDLFKNEEDEPGMERACRDLLLVATYINDLVDDQIHFLKQHKKELEIQKSVTKNFNSSLENIKSKLTLEEPGAYKEPKLLLKINLKKAKSRERKESITSPTIGINQGDVTEGNNNQEEVYCFCRNVSYGPMVACDNPACPFEEFHYGCVGLKQAPKGKWYCSKDCKEIANQRSKSKRQKRRK [W180E] | decreasing interaction
